*1 amine or outer side, *2 acyl side, *3 side chain or, on linkers, in order; H or OH if unused. Where a SMILES comes first, the peptide text is derived from it. Bridges are numbered along the chain shown (N, C = ends). Roman numbers before positions name the chains, in order. [ ]: non-standard residue; d: D form. The star is where a group is joined. X2 = O=C(CCCCCN1C(=O)CC([*:2])C1=O)NCCOCCOCCOCCOCCOCCOCCOCCOCCC(=O)[*:1]; Hexanoyl(6-succinimido-3yl) = O=C1CC([*:1])C(=O)N1CCCCCC(=O)[*:2]; Dolaproine = CO[C@@H]([C@@H]1CCCN1)[C@@H](C)C(=O)O; Dil = CC[C@H](C)[C@H](NC)[C@@H](CC(=O)O)OC; PABC = O=C(OCc1ccc(N[*:1])cc1)[*:2]; X1 = C[C@@H](N*)[C@@H](O)c1ccccc1; Cit = NC(=O)NCCC[C@H](N)C(=O)O; NMeV = CN[C@H](C(=O)O)C(C)C; AEA = NCCOCC(=O)O
Assays:
[1] = system: tubulin; details: cited from earlier work
From the text: In the progression of cancers, a matrix metalloproteinase (MMP) remodeling of the extracellular tumor environment is essential for invasion and metastases. The fundamental role that MMPs play in tumor spread has made them a focus for developing new cancer therapies. While inhibitors to MMPs have been developed, pharmacologically blocking MMPs has not proven effective in patients. Alternative to enzymatic inhibition, tumor MMP activity can be therapeutically co-opted for targeting drug delivery. An example of this strategy involves cloaking cell-penetrating peptide–drug c ...

[2] = Tissue drug measurement (MMAE biodistribution) after IV cRGD-ACPP-MMAE; format: in vivo; details: mice with HCT116 xenografts, 10 nmoles IV
Method: To determine tissue specificity and the kinetics of ACPP targeting in human and murine tumor model systems, we used complementary approaches, measuring drug concentrations in harvested tissues and non-invasive fluorescence whole-animal imaging. First, the pharmacokinetics of cRGD-ACPP-MMAE drug accumulation were measured in tumor and normal tissues from mice with human HCT116 xenografts. Tumor-bearing mice were intravenously (IV) injected with cRGD-ACPP-MMAE (Figure 3A). Blood, tumor, and normal tissues (heart, kidney, liver, and muscle) were collected 2, 6, and 24 h after IV injection and assayed for MMAE by LC–MS/MS (Figure 3C). […] To determine the spatial specificity of ACPP drug delivery, normal muscle tissue adjacent to the tumor xenograft was harvested.
Mice with established subcutaneous HCT116 tumors were intravenously injected through the tail vein with 10 nmoles of cRGD-ACPP-MMAE. Tumors, blood, and normal tissues were harvested at indicated time points and homogenized in 10 volumes of PBS with a point sonicator (amplitude range 5–15%). Homogenates were centrifuged ([…], 10 min) with supernatants collected and diluted 2-fold by the addition of 2% acetic acid in acetonitrile, followed by centrifugation (14× g, 10 min). MMAE concentration was measured by using LC–MS/MS with a Luna-2 C18 column (Phenomenex, Torrance, CA, USA) and Agilent Trap XCT mass spectrophotometer (Agilent), with extracted ion currents at 686.4 and 506.4 integrated and combined to improve sensitivity. Ion currents were fitted to a standard curve to determine tissue drug concentrations.

[3] = Mouse body weights in the therapy studies (safety and tolerability); format: in vivo, mice; details: LL2 and B16 therapy studies, total 40 nmoles IV, weighed weekly
Method: To assess the safety and tolerability of systemically administered ACPP-MMAE conjugate, mice weights were measured weekly in the two therapy studies above.
(A) Mice bearing LL2 tumors IV injected with vehicle (untreated) or cRGD-ACPP-MMAE (20 nmoles on days 4 and 6). Individual tumor volumes plotted, left panel. Average tumors volumes on day 18 plotted as mean ± SEM, right panel (n = 10 for untreated, n = 6 for cRGD-ACPP-MMAE). Statistical significance calculated using two-tailed t testing. (B) Mice bearing B16 tumors IV injected with vehicle (untreated) or cRGD-ACPP-MMAE (20 nmoles on days 3 and 5). Individual tumor volumes plotted, left panel. Average tumors volumes on day 19 plotted as mean ± SEM, right panel (n = 10 for untreated, n = 6 for cRGD-ACPP-MMAE). Statistical significance calculated using two-tailed t testing. (C) Mouse body weights of mice from experiments in (A,B), plotted as mean fractional body weight ± SEM.
LL2 and B16 tumor cells were injected subcutaneously into the hindlimbs of 6-week-old female C57BL/6 albino mice in 100 µL of 1:1 Growth Factor Reduced Matrigel (BD) and PBS solution. […] Tumor volumes were measured and calculated using the formula as ½ × Length × Width^2. Body weights were measured weekly to assess general animal health.

| SMILES | potency for mitotic arrest and cell death [1] | tissue with highest MMAE level at 2 h ([2]; 2 h, LC-MS/MS) | tumor MMAE concentration versus peri-tumoral muscle by 6 h ([2]; 6 h, LC-MS/MS) | tumor MMAE versus normal tissues at 24 h post-injection ([2]; 24 h, LC-MS/MS, one-way ANOVA with Tukey) | MMAE concentration in normal tissues after 6 h post-drug delivery ([2]; LC-MS/MS) | tumor MMAE concentration over 24 h post-injection ([2]; LC-MS/MS) | time of peak MMAE concentration in all normal tissues (heart, kidney, liver, muscle) ([2]; tissues collected 2, 6, 24 h, MMAE by LC-MS/MS) [h] | mouse body weights, control versus treated [3] |
| --- | --- | --- | --- | --- | --- | --- | --- | --- |
| CC[C@H](C)[C@@H]([C@@H](CC(=O)N1CCC[C@H]1[C@H](OC)[C@@H](C)C(=O)N[C@H](C)[C@@H](O)c1ccccc1)OC)N(C)C(=O)[C@@H](NC(=O)[C@@H](NC)C(C)C)C(C)C [MMAE, Monomethyl auristatin E] (H-[NMeV]V[Dil][Dolaproine]-X1) | single nanomolar range |  |  |  |  |  |  |  |
| CC[C@H](C)[C@@H]([C@@H](CC(=O)N1CCC[C@H]1[C@H](OC)[C@@H](C)C(=O)N[C@H](C)[C@@H](O)c1ccccc1)OC)N(C)C(=O)[C@@H](NC(=O)[C@H](C(C)C)N(C)C(=O)OCc1ccc(NC(=O)[C@H](CCCNC(N)=O)NC(=O)[C@@H](NC(=O)CCCCCN2C(=O)CC(SC[C@@H](NC(=O)[C@@H](CCCNC(=N)N)NC(=O)[C@@H](CCCNC(=N)N)NC(=O)[C@@H](CCCNC(=N)N)NC(=O)[C@@H](CCCNC(=N)N)NC(=O)[C@@H](CCCNC(=N)N)NC(=O)[C@@H](CCCNC(=N)N)NC(=O)[C@@H](CCCNC(=N)N)NC(=O)[C@@H](CCCNC(=N)N)NC(=O)[C@@H](CCCNC(=N)N)NC(=O)CNC(=O)[C@H](C)NC(=O)[C@H](CSC)NC(=O)CNC(=O)[C@H](CC(C)C)NC(=O)[C@@H]3CCCN3C(=O)COCCNC(=O)[C@@H](CCC(=O)O)NC(=O)[C@@H](CCC(=O)O)NC(=O)[C@@H](CCC(=O)O)NC(=O)[C@@H](CCC(=O)O)NC(=O)[C@@H](CCC(=O)O)NC(=O)[C@@H](CCC(=O)O)NC(=O)[C@@H](CCC(=O)O)NC(=O)[C@@H](CCC(=O)O)NC(=O)[C@@H](CCC(=O)O)NC(=O)CCOCCOCCOCCOCCOCCOCCOCCOCCNC(=O)CCCCCN3C(=O)CC(SC[C@@H]4NC(=O)[C@@H](Cc5ccccc5)NC(=O)[C@H](CC(=O)O)NC(=O)CNC(=O)[C@H](CCCNC(=N)N)NC4=O)C3=O)C(N)=O)C2=O)C(C)C)cc1)C(C)C (some centres unmarked) [cRGD-ACPP-MMAE, cyclo(RGD)fc-MC-HN-peg8-e9-oPLGC(Me)AG-r9-c-(MC-VC-PABC-MMAE)-CONH2] (I: [dE][dE][dE][dE][dE][dE][dE][dE][dE][AEA]PLGC(Me)AG[dR][dR][dR][dR][dR][dR][dR][dR][dR][dC]-NH2 / II: V[Cit][PABC][NMeV]V[Dil][Dolaproine]-X1 / III: cyclo(RGD[dF]C); linker I:26-II:N via Hexanoyl(6-succinimido-3yl); linker I:N-III:5 via X2) |  | the kidneys had the highest levels of MMAE | higher than the surrounding normal muscle tissue | significantly higher than all normal tissues assayed | rapid decrease | remained relatively constant | 2 | no significant difference |

— paper PMC11643828, “Tumor-Targeted Cell-Penetrating Peptides Reveal That Monomethyl Auristatin E Temporally Modulates the Tumor Immune Microenvironment” (Molecules, 2024)
